Source: article PMC9167820, “An experimental study of the effects of SNPs in the TATA boxes of the GRIN1, ASCL3 and NOS1 genes on interactions with the TATA-binding protein”

Each molecule was assayed against TATA-binding protein (TBP) (Homo sapiens, UniProt P20226 1-339) (assay: EMSA (kinetic, kd/ka); 20 mM HEPES-KOH pH 7.6, 5 mM MgCl2, 70 mM KCl, 1 mM DTT, 100 ug/ml BSA, 0.01% NP-40, 5% 'XYZ' (so in the source), 25 C; TBP 0.4 nM; gel 5% PAGE Tris-glycine pH 8.3, 10 C). Conditions: protein: recombinant; label: 32P; blunt.
Chain of TATA-binding protein (TBP) (P20226 whole entry): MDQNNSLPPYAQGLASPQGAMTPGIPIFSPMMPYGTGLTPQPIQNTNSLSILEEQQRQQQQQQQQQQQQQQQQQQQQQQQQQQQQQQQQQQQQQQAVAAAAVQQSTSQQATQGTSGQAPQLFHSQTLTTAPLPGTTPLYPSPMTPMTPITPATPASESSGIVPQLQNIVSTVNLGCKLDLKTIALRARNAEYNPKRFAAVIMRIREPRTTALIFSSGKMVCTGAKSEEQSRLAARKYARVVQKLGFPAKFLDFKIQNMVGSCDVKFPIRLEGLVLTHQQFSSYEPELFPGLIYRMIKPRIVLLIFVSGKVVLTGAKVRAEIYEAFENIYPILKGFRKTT

| Molecule | Kd [nM] |
| --- | --- |
| GRIN1 WT (dsDNA) DNA 1: TGGAGGGGGACAAAGACAGGGTGGTG DNA 2: CACCACCCTGTCTTTGTCCCCCTCCA | 320 ± 50 |
| NOS1 -27G>A (rs1195040887) (dsDNA) DNA 1: TGTTTCCTGATAAAAAAAAAAAATGG DNA 2: CCATTTTTTTTTTTTATCAGGAAACA | 59 ± 9 |
| GRIN1 -34G>A (rs1402667001) (dsDNA) DNA 1: TGGAGGAGGACAAAGACAGGGTGGTG DNA 2: CACCACCCTGTCTTTGTCCTCCTCCA | 200 ± 50 |
| ASCL3 WT (dsDNA) DNA 1: TCGAAAAATAAAATAAAATAAAACAT DNA 2: ATGTTTTATTTTATTTTATTTTTCGA | 12 ± 5 |
| NOS1 WT (dsDNA) DNA 1: TGTTTCCTGATAGAAAAAAAAAATGG DNA 2: CCATTTTTTTTTTCTATCAGGAAACA | 70 ± 20 |

These molecules were tested against TATA-binding protein (TBP) (Homo sapiens) (UniProt P20226) (assay: EMSA (kinetic, kd/ka)). Conditions: 20 mM HEPES-KOH pH 7.6, 5 mM MgCl2, 70 mM KCl, 1 mM DTT, 100 ug/ml BSA, 0.01% NP-40, 5% 'XYZ' (so in the source), 25 C; TBP 0.4 nM; gel 5% PAGE Tris-glycine pH 8.3 ….
Chain of TATA-binding protein (TBP) (Homo sapiens) (P20226 whole entry): as the sequence (P20226 whole entry) above

| Molecule | Kd [nM] |
| --- | --- |
| TCGAAAAATAAAACAAAATAAAACAT (double strand) [ASCL3 -45T>C (rs1049743008)] | 17 |
